From publication PMC8892091 (The Journal of Biological Chemistry, 2022) come the findings set out here.

For one data set, the target named is His-tag labeled ALKBH6 (human, UniProt Q3KRA9 1-238, fluorescent label on the His-tag (His-tag labeling kit RED-tris-NTA)). Kind of data set: MST.
The data set “crystal structure” deals with the molecule itself. Kind of data set: crystal structure.

B1: ZMYND11 peptide (V71 to K151) (domain or fragment, human, UniProt Q15326 71-151, looked up)
chain: VGCKGSKAGIEQEGYWLPGDEIDWETENHDWYCFECHLPGEVLICDLCFRVYHSKCLSDEFRLRDSSSPWQCPVCRSIKKK
Take B1: the “fold higher binding affinity than ALKBH6 itself” value with His-tag labeled ALKBH6 came out at 3.5 fold.

B2: ALKBH6 (crystallised, ALKBH6∙Mn2+∙α-KG; holo-ALKBH6) (enzyme, human, UniProt Q3KRA9 1-238, looked up)
chain: MEEQDARVPALEPFRVEQAPPVIYYVPDFISKEEEEYLLRQVFNAPKPKWTQLSGRKLQNWGGLPHPRGMVPERLPPWLQRYVDKVSNLSLFGGLPANHVLVNQYLPGEGIMPHEDGPLYYPTVSTISLGSHTVLDFYEPRRPEDDDPTEQPRPPPRPTTSLLLEPRSLLVLRGPAYTRLLHGIAAARVDALDAASSPPNAAACPSARPGACLVRGTRVSLTIRRVPRVLRAGLLLGK
Consider B2, for which, in the data set “crystal structure”, the binding result is “binds”.
